In patent US20260152557A1 (Adimab, published 2026):

Experiments:
[1] = biological target: T1, cynomolgus CD3εδ-Fc heterodimer (Cy CD3ε Fc / CD3δ Fc-HIS) (cynomolgus, UniProt Q95LI8 22-100); test: BLI (Octet), CHO-produced IgG on AHC sensor, CD3εδ-Fc 100 nM in solution, pH 7.4
T1 construct: range 22-100; Produced in HEK 293 cells; also called Cy CD3εδ Fc heterodimer; not shown: Fc-HIS part of CD3δ Fc-HIS
Protocol: (§1) Anti-CD3 antibodies Antibody Nos. 1-13 were produced as human IgG1 antibodies in yeast or CHO cells. IgGs produced in yeast were aglycosylated, CHO) produced IgGs had standard CH2 glycosylation. Binding affinity to human or cynomolgus CD3εδ-Fc at pH 7.4 and pH 6.0 was measured via biolayer interferometry (BLI) using the ForteBio OCTET® HTX system and analyzed using the ForteBio software.
(§2) Kinetics were analyzed using the 1:1 binding model.

[2] = biological target: T2, human CD3 on CD3+ Jurkat cells (human, UniProt P07766 23-207); test: flow cytometry, yeast-produced IgG 100 nM on CD3+ Jurkat cells, pH 7.4
T2 construct: whole, on cells; The whole CD3 complex stands on the cells; also called Human CD3 Jurkat; human CD3+ Jurkat cells
Protocol: (§3) Anti-CD3 antibodies Antibody Nos. 1-13 were produced as aglycosylated IgGs comprising a IgG1 Fc region in yeast cells. Binding to human or cynomolgus CD3-expressing cells (human CD3+ Jurkat cells or cynomolgus HSC-F cells, respectively) at pH 7.4 and pH 6.0 were measured by fluorescence-activated single cell sorting (FACS). Normalized cell binding (NCB) values were calculated based on median fluorescence intensity (MFI) values, CD3 negative Jurkat cells were used as a negative control.
(§4) Cell binding assay, CD3+ and CD3− human Jurkat cells (ATCC) and cynomolgus HSC-F cells (NIH) were thawed and washed with cold PBSF buffer, pH 7.4 (PBS+0.1% BSA, pH 7.4). About 200,000 cells were aliquoted per well of a 96-well plate (FACS Assay Plate VWR BD 353263) and pelleted by centrifugation (5 minutes at 500×g). The cells were washed with either PBSF pH 7.4 or PBSF pH 6.0 (PBS+0.1% BSA, pH 6.0), and then resuspended in 100 μl in either PBSF pH 7.4 or PBSF pH 6.0 with IgG antibody (100 nM) produced in yeast as described above. The mixture (cells+antibody) was incubated for 20 minutes on ice, then washed twice with either PBSF pH 7.4 or PBSF pH 6.0. Cells were resuspended in 50 μl of propidium iodide (Roche; 1:500 dilution) and anti-human IgG-RPE (Southern Biotech; 1:100 dilution) prepared in either PBSF pH 7.4 or PBSF pH 6.0, then incubated for 20 minutes on ice in the dark before cells were washed twice with either PBSF pH 7.4 or PBSF pH 6.0. Binding was analyzed on FACS Canto 11.

[3] = biological target: T1, cynomolgus CD3εδ-Fc heterodimer (Cy …); test: BLI (Octet), yeast-produced IgG on AHC sensor, CD3εδ-Fc 100 nM in solution, pH 6.0
Protocol: as §1, §2

[4] = biological target: T3, human CD3εδ-Fc heterodimer (Hu CD3ε Fc / CD3δ Fc-HIS) (human, UniProt P04234 22-100); test: as above
T3 construct: range 22-100; Produced in HEK 293 cells with a heterologous signal peptide; heterodimer purified by Ni Sepharose and Mono Q; also called Hu CD3εδ Fc heterodimer; CD3εδ Fc-HIS heterodimer; not shown: Fc-HIS part of CD3δ Fc-HIS
Protocol: as §1, §2

[5] = biological target: T1, cynomolgus CD3εδ-Fc heterodimer (Cy …); test: BLI (Octet), yeast-produced IgG on AHC sensor, CD3εδ-Fc 100 nM in solution, pH 7.4
Protocol: as §1, §2

[6] = biological target: T3, human CD3εδ-Fc heterodimer (Hu CD3ε Fc …); test: as above
Protocol: as §1, §2

[7] = biological target: T1, cynomolgus CD3εδ-Fc heterodimer (Cy …); test: BLI (Octet), CHO-produced IgG on AHC sensor, CD3εδ-Fc 100 nM in solution, pH 6.0
Protocol: as §1, §2

[8] = biological target: T2, human CD3 on CD3+ Jurkat cells; test: flow cytometry, yeast-produced IgG 100 nM on CD3+ Jurkat cells, pH 6.0
Protocol: as §3, §4

[9] = biological target: T4, cynomolgus CD3 on HSC-F cells (cynomolgus, UniProt Q95LI5 22-198); test: flow cytometry, yeast-produced IgG 100 nM on HSC-F cells, pH 7.4
T4 construct: whole, on cells; also called Cyno HSC-F; cynomolgus HSC-F cells
Protocol: as §3, §4

[10] = biological target: T4, cynomolgus CD3 on HSC-F cells; test: flow cytometry, yeast-produced IgG 100 nM on HSC-F cells, pH 6.0
Protocol: as §3, §4

T1 sequence (chain, as listed by the source mutant, form in doubt, chain 1 of 2): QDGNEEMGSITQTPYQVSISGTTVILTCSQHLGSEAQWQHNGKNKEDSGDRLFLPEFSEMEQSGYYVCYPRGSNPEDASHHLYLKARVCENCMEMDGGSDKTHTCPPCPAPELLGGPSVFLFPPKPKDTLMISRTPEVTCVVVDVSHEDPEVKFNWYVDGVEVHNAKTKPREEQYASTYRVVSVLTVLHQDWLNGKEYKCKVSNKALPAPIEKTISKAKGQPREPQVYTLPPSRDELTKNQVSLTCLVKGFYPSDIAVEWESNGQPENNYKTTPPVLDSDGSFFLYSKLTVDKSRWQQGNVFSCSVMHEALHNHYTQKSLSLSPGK
T1 sequence (Q95LI8 22-100, stated change not applied, form in doubt, chain 2 of 2): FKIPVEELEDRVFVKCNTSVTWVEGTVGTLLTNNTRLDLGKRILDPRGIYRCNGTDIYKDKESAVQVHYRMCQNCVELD
T4 sequence (Q95LI5 22-198): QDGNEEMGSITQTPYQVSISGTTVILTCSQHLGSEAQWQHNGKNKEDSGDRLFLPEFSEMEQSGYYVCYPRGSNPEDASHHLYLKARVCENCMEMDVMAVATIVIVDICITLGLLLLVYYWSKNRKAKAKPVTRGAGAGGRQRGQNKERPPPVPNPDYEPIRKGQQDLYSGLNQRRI
T3 sequence (chain, as listed by the source mutant, form in doubt, chain 1 of 2): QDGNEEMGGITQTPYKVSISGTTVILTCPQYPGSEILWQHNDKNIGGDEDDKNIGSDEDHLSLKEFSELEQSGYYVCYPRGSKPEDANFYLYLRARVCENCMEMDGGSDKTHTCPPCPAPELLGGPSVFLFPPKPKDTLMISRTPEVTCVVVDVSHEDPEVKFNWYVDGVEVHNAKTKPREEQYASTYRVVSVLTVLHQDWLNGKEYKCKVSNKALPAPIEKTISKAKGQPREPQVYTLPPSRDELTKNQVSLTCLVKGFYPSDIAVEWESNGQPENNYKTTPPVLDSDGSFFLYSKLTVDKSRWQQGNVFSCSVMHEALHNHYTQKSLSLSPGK
T3 sequence (P04234 22-100, stated change not applied, form in doubt, chain 2 of 2): as the sequence (Q95LI8 22-100, stated change not applied, form in doubt, chain 2 of 2) above, with V5I, K15N, V20I, T32S, N33D, N34I, A64T, N74S counted along it
T2 sequence (P07766 23-207): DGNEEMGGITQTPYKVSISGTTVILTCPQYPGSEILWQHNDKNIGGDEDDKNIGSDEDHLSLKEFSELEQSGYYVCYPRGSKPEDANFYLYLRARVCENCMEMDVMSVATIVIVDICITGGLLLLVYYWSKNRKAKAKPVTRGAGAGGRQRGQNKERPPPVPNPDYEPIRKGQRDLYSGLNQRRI

B1: ADI-26906 (Antibody No. 1), human IgG1 (antibody, V domains shown)
VH: QVQLVQSGAEVKKPGASVKVSCKASGFNIKDYYMHWVRQAPGQRLEWMGWIDLENANTIYDAKFQGRVTITRDTSASTAYMELSSLRSEDTAVYYCARDAYGRYFYDVWGQGTLVTVSS
VL: DIVMTQSPDSLAVSLGERATINCKSSQSLLNARTGKNYLAWYQQKPGQPPKLLIYWASTRESGVPDRFSGSGSGTDFTLTISSLQAEDVAVYYCKQSYSRRTFGGGTKVEIK
notes: Non-pH-dependent parent; Tested as human IgG1 (yeast-produced aglycosylated, or CHO-produced); also called Ab No. 1
With B1 as the binder, how does the Kd [1] read?
Its Kd is 5.87 nM.

What about the NCB [2] of the same binder?
Its NCB is 149.

What about the Kd [3] of the same binder?
The Kd was 2.5 nM.

And the Kd [4]?
Its Kd is 2.84 nM.

What about the Kd [5] of the same binder?
Its Kd is 4.1 nM.

And the Kd [6]?
Its Kd is 4.35 nM.

What about the Kd [7] of the same binder?
The Kd was 5.89 nM.

And the NCB [8]?
Its NCB is 203.

What about the NCB [9] of the same binder?
Its NCB is 167.

And the NCB [10]?
The NCB was 560.
